Test results as given in article PMC4627693 (Chemistry & biology, 2014).
Where no end group is shown, it is not given here. The star is where a group is joined. Biotin = O=C1N[C@H]2[C@H](CS[C@H]2CCCCC(=O)*)N1; code Z = ethylene glycol unit

Biological target: c-Src tyrosine kinase (recombinant) (UniProt P00523 1-533)
Test: cross-linking

Binder: {Biotin-code Z-code Z}-ICGEFRRR [Cys-Srctide (Biotin-ZZICGEFRRR)]
- EC50: 63 µM
